# From paper doi:10.1101/2020.12.01.405779
# Experiments:
# FUL2 (wheat) = experiment: two-hybrid
# FUL3 (wheat) = experiment: two-hybrid
substance,measurement,setting,value
VRT2 (Bridge protein of the yeast three-hybrid assay) (natural protein),percent reduction of the α-gal activity of the FUL2 - SEP1-2 interaction,FUL2 (wheat),12%
same,percent reduction of the α-gal activity of the FUL2 - SEP1-4 interaction,FUL2 (wheat),20.6%
same,percent reduction of the α-gal activity of the FUL2 - SEP1-6 interaction,FUL2 (wheat),22%
same,percent reduction of the α-gal activity of the FUL3 - SEP1-2 interaction,FUL3 (wheat),93.8%
